From article PMC9976613 (Journal of structural biology, 2018) come the findings set out here.

This series deals with the molecule itself. Kind of series: crystal structure.

B1: His6-DcrBΔ37 (domain or fragment, Salmonella enterica, UniProt Q7CPJ3 38-185, looked up)
chain: ASGQPISLMDGKLSFSLPADMTDQSGKLGTQANNMHVYSDPTGQKAVIVIVGDNTDEALPVLANRLLEQQRSRDPQLQVVTNKSIELKGHTLQQLDSIISAKGQTAYSSIVLGKVDNQLLTIQVTLPADNQQKAQTTAENIINTLVIK
With B1, the binding result is “binds”.
